B1: TdcB: catabolic threonine dehydratase of E. coli (protein, listed as Escherichia coli)
chain: MHITYDLPVAIDDIIEAKQRLAGRIYKTGMPRSNYFSERCKGEIFLKFENMQRTGSFKIRGAFNKLSSLTDAEKRKGVVACSAGNHAQGVSLSCAMLGIDGKVVMPKGAPKSKVAATCDYSAEVVLHGDNFNDTIAKVSEIVEMEGRIFIPPYDDPKVIAGQGTIGLEIMEDLYDVDNVIVPIGGGGLIAGIAVAIKSINPTIRVIGVQSENVHGMAASFHSGEITTHRTTGTLADGCDVSRPGNLTYEIVRELVDDIVLVSEDEIRNSMIALIQRNKVVTEGAGALACAALLSGKLDQYIQNRKTVSIISGGNIDLSRVSQITGFVDA
B2: GDH1 (protein, UniProt P07262 2-454, looked up)
NADP-specific glutamate …: SEPEFQQAYEEVVSSLEDSTLFEQHPEYRKVLPIVSVPERIIQFRVTWENDKGEQEVAQGYRVQYNSAKGPYKGGLRFHPSVNLSILKFLGFEQIFKNSLTGLDMGGGKGGLCVDLKGRSNNEIRRICYAFMRELSRHIGQDTDVPAGDIGVGGREIGYLFGAYRSYKNSWEGVLTGKGLNWGGSLIRPEATGYGLVYYTQAMIDYATNGKESFEGKRVTISGSGNVAQYAALKVIELGGTVVSLSDSKGCIISETGITSEQVADISSAKVNFKSLEQIVNEYSTFSENKVQYIAGARPWTHVQKVDIALPCATQNEVSGEEAKALVAQGVKFIAEGSNMGSTPEAIAVFETARSTATGPSEAVWYGPPKAANLGGVAVSGLEMAQNSQRITWTSERVDQELKRIMINCFNECIDYAKKYTKDGKVLPSLVKGANIASFIKVSDAMFDQGDVF
B3: IlvE: branched-chain amino acid aminotransferase of E. coli (protein, UniProt P0AB80 2-309, looked up)
Branched-chain-amino-acid …: TTKKADYIWFNGEMVRWEDAKVHVMSHALHYGTSVFEGIRCYDSHKGPVVFRHREHMQRLHDSAKIYRFPVSQSIDELMEACRDVIRKNNLTSAYIRPLIFVGDVGMGVNPPAGYSTDVIIAAFPWGAYLGAEALEQGIDAMVSSWNRAAPNTIPTAAKAGGNYLSSLLVGSEARRHGYQEGIALDVNGYISEGAGENLFEVKDGVLFTPPFTSSALPGITRDAIIKLAKELGIEVREQVLSRESLYLADEVFMSGTAAEITPVRSVDGIQVGEGRCGPVTKRIQQAFFGLFTGETEDKWGWLDQVNQ
B4: IlvABS: biosynthetic threonine dehydratase IlvA from Bacillus subtilis (protein, listed as Bacillus subtilis)
chain: MKPLLKENSLIQVKDILKAHQNVKDVVIHTPLQRNDRLSERYECNIYLKREDLQVVRSFKLRGAYHKMKQLSSEQTENGVVCASAGNHAQGVAFSCKHLGIHGKIFMPSTTPRQKVSQVELFGKGFIDIILTGDTFDDAYKSAAECCEAESRTFIHPFDDPDVMAGQGTLAVEILNDIDTEPHFLFASVGGGGLLSGVGTYLKNVSPDTKVIAVEPAGAASYFESNKAGHVVTLDKIDKFVDGAAVKKIGEETFRTLETVVDDILLVPEGKVCTSILELYNECAVVAEPAGALSVAALDLYKDQIKGKNVVCVVSGGNNDIGRMQEMKERSLIFEGLQHYFIVNFPQRAGALREFLDEVLGPNDDITRFEYTKKNNKSNGPALVGIELQNKADYGPLIERMNKKPFHYVEVNKDEDLFHLLI
B5: GDHwt: wild-type glutamate dehydrogenase of E. coli, N-terminal 6×His-tag (protein, listed as Escherichia coli)
chain: MDQTYSLESFLNHVQKRDPNQTEFAQAVREVMTTLWPFLEQNPKYRQMSLLERLVEPERVIQFRVVWVDDRNQIQVNRAWRVQFSSAIGPYKGGMRFHPSVNLSILKFLGFEQTFKNALTTLPMGGGKGGSDFDPKGKSEGEVMRFCQALMTELYRHLGADTDVPAGDIGVGGREVGFMAGMMKKLSNNTACVFTGKGLSFGGSLIRPEATGYGLVYFTEAMLKRHGMGFEGMRVSVSGSGNVAQYAIEKAMEFGARVITASDSSGTVVDESGFTKEKLARLIEIKASRDGRVADYAKEFGLVYLEGQQPWSLPVDIALPCATQNELDVDAAHQLIANGVKAVAEGANMPTTIEATELFQQAGVLFAPGKAANAGGVATSGLEMAQNAARLGWKAEKVDARLHHIMLDIHHACVEHGGEGEQTNYVQGANIAGFVKVADAMLAQGVI
modifications: N-terminal 6xHis tag
notes: wild-type glutamate dehydrogenase of E. coli, N-terminal 6×His-tag

How the values were obtained:
threonine = test: Production of L-homoalanine from glucose by E. coli overexpressing GDH2 and threonine dehydratases; assay type: cell-based, Escherichia coli; details: ATCC98082, overexpressed in combination with GDH2
Description: FIG. 5A is a graph with horizontal axis labels defined as follows: (1) BW25113; (2) BW25113 with overexpression of GDH2; (3) ATCC98082 with overexpression of TdcB & GDH2; (4) ATCC98082 with overexpression of IlvAEc & GDH2; (5) ATCC98082 with overexpression of IlvABS & GDH2; and (6) ATCC98082 (ArhtA) with overexpression of IlvABS and GDH2. FIG. 5B is a graph showing the yield of L-homolalanine biosynthesis from glucose. The error bars represent standard deviations from three independent experiments.
To test the production of L-homoalanine from glucose, E. coli strain ATCC98082 harboring plasmid pZS_thrO (see, e.g. Zhang et al. (2008) Proc Natl Acad Sci USA 105(52):20653-20658) was transformed with pZElac_tdcB_GDH, pZElac_ilvAEC_GDH and pZElac_ilvABS_GDH. These transformants were subjected to fermentation using the following production medium: 30 g glucose, 17 g (NH4)2SO4, 2 g KH2PO4, 1 g MgSO4.7H2O, 2 g yeast extract, 0.1 g L-valine, 0.01 g FeSO4:7H2O and 0.01 g MnSO4:7H2O per liter. Antibiotics were added appropriately (ampicillin 50 mg/L, spectinomycin 25 mg/L). Overnight 2XYT culture were diluted 25× into fermentation medium and 0.1 mM isopropyl-b-D-thiogalactoside (IPTG) was added to induce protein expression. In shake flask experiments, the culture medium was buffered by addition of 30 g/L CaCO3. Cultures were incubated in 33° C. shaker (250 rpm) for 40-50 h until glucose was consumed.

2-ketobutyrate = test: Conversion of fed 2-ketobutyrate to L-homoalanine by E. coli BW25113 overexpressing amination enzymes; assay type: cell-based, Escherichia coli; set-up: L-homoalanine produced: unit not given here; details: for L-homoalanine produced: 10 g/L 2-ketobutyrate fed, M9 medium, 37° C., 24 h
Procedure: FIG. 2 is a graph comparing different amination enzymes on the production of L-homoalanine. E. coli cultures were inoculated in M9 medium with addition of 10 g/L 2-ketobutyrate and incubated at 37° C. for 24 h. The horizontal axis labels are defined as follows: (A) Wild-type E. coli BW25113; overexpression of (B) transaminase IlvE (C) valine dehydrogenase from Streptomyces avermitilis; (D) valine dehydrogenase from Streptomyces coelicolor, (E) valine dehydrogenase from Streptomyces fradiae; (F) evolved glutamate dehydrogenase GDH1; and (G) evolved glutamate dehydrogenase GDH2. The error bars represent standard deviations from three independent experiments.
In order to check if any endogenous transaminase of E. coli can work on 2-ketobutyrate, we fed 10 g/L 2-ketobutyrate to wildtype E. coli strain BW25113 growing in M9 medium. […] Since the branched-chain amino acid aminotransferase IlvE (see, e.g. Inoue K, et al. (1988) J Biochem 104(5):777-784) is likely to be a functional candidate, we cloned and overexpressed IlvE in BW25113, which increased the production of L-homoalanine to […] (FIG. 2B). […] However, high concentration of glutamate is needed to drive the reaction equilibrium because transamination is a reversible reaction process. Even under such extreme conditions, the conversion rate of transaminating 2-ketobutyrate to L-homoalanine is only 32%.
To test the conversion of 2-ketobutyrate to L-homoalanine, plasmids pZElac_IlvE, pZElac_VDHsa, pZElac_VDHsc, pZElac_VDHsf, pZElac_GDH and pZElac_GDH2 were transformed into BW25113. The transformants were inoculated in M9 medium with 5 g/L yeast extract, 10 g/L ammonium hydrochloride and 20 g/L glucose. Once OD reached ˜1.0, 10 g/L 2-ketobutyrate plus 0.1 mM IPTG were added and incubated at 37° C. for 24 h. Amino acids were quantified as o-phthaldialdehyde (OPA) derivatives by HPLC analysis.

[1] = Enzymatic assay of purified glutamate dehydrogenases, amination of 2-ketobutyrate (NADPH consumption at 340 nm); assay type: biochemical; details: 100 mM Tris pH 8.0, 0.2M NH4Cl, 0.2 mM NADPH
Procedure: To characterize the enzymes, both the wild-type glutamate dehydrogenase GDHwt and mutant GDH2 were added an N-terminal 6×His-tag, overexpressed, and purified through Ni-NTA columns. The kinetic parameters for […] of 2-ketoglutarate (cognate substrate) and 2-ketoisovalerate or 2-ketobutyrate (nonnatural substrates) were determined by monitoring the consumption of NADPH at 340 nm (FIG. 6). […] The increase in binding affinity is very helpful since high concentration of 2-ketobutyrate interferes with cellular metabolic activities (see, e.g. Daniel et al. (1983) Mol Gen Genet 190(3):452-458). On the basis of the crystallographic model for the active site of GDH, amino group of K92 hydrogenbonds to the γ-carboxyl group of 2-ketoglutarate and determines the substrate specificity (see, e.g. Stillman et al. (1993) J Mol Biol 234(4):1131-1139). Mutation of lysine to valine increases the hydrophobic character of the binding pocket, which explains why the specificity constant kcat/Km of GDH2 towards 2-ketobutyrate is 50-fold higher than that towards the natural substrate 2-ketoglutarate.
Both gene fragments encoding wildtype glutamate dehydrogenase and GDH2 were amplified using primers GDHbamfwd and GDHbamrev. After digestion with BamHI, the gene fragments were inserted into expression plasmid pQE9 (Qiagen). The resulting expression plasmids were transformed into E. coli strain BL21(DE3) harboring pREP4 (Qiagen). Cells were inoculated from an overnight preculture at 1/100 dilution and grown in 200 mL 2XYT rich medium containing 50 mg/L ampicillin and 25 mg/L kanamycin. At an OD600 of 0.6, recombinant proteins were expressed by induction of the cell cultures with 0.1 mM IPTG, followed by incubation at 30° C. overnight. Overexpressed proteins were then purified with Ni-nitrilotriacetic acid columns. Protein concentration was determined by measuring UV absorbance at 280 nm.
Enzymatic assay was performed in assay buffer (100 mM Tris buffer, pH 8.0) containing 0.2M NH4Cl, 0.2 mM NADPH, and various concentrations of 2-ketoacids. The reactions were started by adding the purified enzymes, and the consumption of NADPH was monitored at 340 nm (extinction coefficient, 6.22 mM^−1 cm^−1). Kinetic parameters (kcat and Km) were determined by fitting initial velocity data to the Michaelis-Menten equation using Origin.

Molecule | L-homoalanine produced from glucose (threonine) | threonine remaining in fermentation medium (threonine) | L-homoalanine produced (2-ketobutyrate; BW25113 transformant) | further results
B1 | 0.18 g/L | 3.7 g/L |  | glutamate accumulated (threonine): 4 g/L
B2 |  |  | 1.6 | 
B3 |  |  | 1.2 | L-homoalanine titer (2-ketobutyrate; BW25113 transformant, 10 g/L 2-ketobutyrate plus additional 10 g/L glutamate): 3.2 g/L; conversion rate of 2-ketobutyrate to L-homoalanine (2-ketobutyrate; with 10 g/L glutamate as amino donor): 32%
B4 | 3.8 g/L | 2.5 g/L |  | 
B5 |  |  |  | kcat towards 2-ketobutyrate [1]: 47.2 s⁻¹; Km ([1]; read-out: Km towards 2-ketobutyrate): 35.4 mM
